Measured values from patent US7498306B2, “Peptides binding to the phosphatase 2A protein” (priority 2002, dated 2009).

Experiments:
[1] = molecular target: T1, trimeric ABC holoenzyme PP2A1 (Sus scrofa, UniProt P54612+Q29090); assay: peptide spot membrane binding, detected by western blot, with trimeric PP2A1 holoenzyme; design: species or system porcine; conditions: 4 μg/ml purified protein overnight, pool of antibodies against A, B and C; for binding of Bcl-2 peptide sequence to PP2A1 holoenzyme: Bcl-2 dodecapeptide membrane, FIG. 2; for binding of E4orf4 peptide sequence to PP2A1 protein: E4orf4 dodecapeptide membrane, FIG. 1
T1 construct: The trimeric PP2A1 protein has been purified to homogeneity from porcine brain; from tissue; host or cells: porcine brain
T1 sequence (P67776 whole entry, one chain of several, further chain): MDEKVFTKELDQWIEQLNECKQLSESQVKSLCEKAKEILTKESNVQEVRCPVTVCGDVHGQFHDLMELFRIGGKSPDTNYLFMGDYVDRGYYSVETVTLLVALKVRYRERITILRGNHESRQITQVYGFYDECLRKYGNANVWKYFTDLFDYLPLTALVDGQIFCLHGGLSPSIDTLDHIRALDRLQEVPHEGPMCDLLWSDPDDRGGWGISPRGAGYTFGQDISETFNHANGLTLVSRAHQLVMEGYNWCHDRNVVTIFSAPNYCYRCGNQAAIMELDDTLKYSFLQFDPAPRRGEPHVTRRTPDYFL
T1 sequence (P54612 whole entry, one chain of several): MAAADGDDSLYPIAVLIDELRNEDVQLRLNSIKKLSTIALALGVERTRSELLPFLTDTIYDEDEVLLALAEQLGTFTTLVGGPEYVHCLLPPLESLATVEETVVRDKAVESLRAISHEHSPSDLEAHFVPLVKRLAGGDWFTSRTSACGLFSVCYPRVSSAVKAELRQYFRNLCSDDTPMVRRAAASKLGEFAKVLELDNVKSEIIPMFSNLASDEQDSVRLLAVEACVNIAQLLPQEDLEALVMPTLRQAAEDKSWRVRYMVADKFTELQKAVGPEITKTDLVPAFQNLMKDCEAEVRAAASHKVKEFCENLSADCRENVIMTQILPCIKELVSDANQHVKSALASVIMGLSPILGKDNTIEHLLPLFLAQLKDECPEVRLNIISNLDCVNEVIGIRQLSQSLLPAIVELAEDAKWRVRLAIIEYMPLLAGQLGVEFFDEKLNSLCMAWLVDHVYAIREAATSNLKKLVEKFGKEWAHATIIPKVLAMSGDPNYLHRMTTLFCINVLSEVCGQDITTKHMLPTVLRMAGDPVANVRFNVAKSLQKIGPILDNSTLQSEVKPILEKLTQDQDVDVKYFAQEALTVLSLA
Source text: The trimeric PP2A1 protein has been purified to homogeneity from porcine brain.
(§1) We have mapped the binding sites between the E4orf4 proteins (coded by the canine adenovirus type 2) and the anti-apoptotic Bcl-2 protein with PP2A by using the <<peptides spot>> technique previously described (Frank et Overwing. (1996). Meth. Mol. Biol. 66, 149-169).
(§2) This approach is based on the use of membranes containing thereon dodecapeptides representing the whole protein of interest (E4orf4 and Bcl-2) with a two amino acid gap per peptide.
(§3) Each membrane is first saturated one hour at room temperature with TBS containing 5% skim milk powder and 3% BSA, then incubated overnight in the same buffer in the of 4 μg/ml of purified protein (sub-unit A of PP2A and PP2A1 holoenzyme).: Fifty six dodecapeptides covering the whole sequence of the E4orf4 protein and hundred-fifteen dodecapeptides covering the whole sequence of the Bcl-2 protein were synthesized and covalently bound to cellulosic membranes.
The specific interaction of each purified protein (respectively the structural sub-unit A, the regulatory sub-unit of B55(B) or the trimeric ABC holoenzyme (named PP2A1) with a peptide sequence is shown by western blot, following incubation of the membrane with an antibody raised against the structural protein A (A), the regulatory sub-unit B (B) and with a pool of antibodies recognising the A, B, and C proteins of PP2A (ABC) (FIGS. 1 and 2).

[2] = molecular target: T2, regulatory sub-unit B55 (B) of PP2A (Homo sapiens, UniProt P63151); assay: peptide spot membrane binding, detected by western blot, with PP2A sub-unit B55; conditions: antibody against sub-unit B
T2 construct: made in house; host or cells: bacteria
T2 sequence (P63151 1-447): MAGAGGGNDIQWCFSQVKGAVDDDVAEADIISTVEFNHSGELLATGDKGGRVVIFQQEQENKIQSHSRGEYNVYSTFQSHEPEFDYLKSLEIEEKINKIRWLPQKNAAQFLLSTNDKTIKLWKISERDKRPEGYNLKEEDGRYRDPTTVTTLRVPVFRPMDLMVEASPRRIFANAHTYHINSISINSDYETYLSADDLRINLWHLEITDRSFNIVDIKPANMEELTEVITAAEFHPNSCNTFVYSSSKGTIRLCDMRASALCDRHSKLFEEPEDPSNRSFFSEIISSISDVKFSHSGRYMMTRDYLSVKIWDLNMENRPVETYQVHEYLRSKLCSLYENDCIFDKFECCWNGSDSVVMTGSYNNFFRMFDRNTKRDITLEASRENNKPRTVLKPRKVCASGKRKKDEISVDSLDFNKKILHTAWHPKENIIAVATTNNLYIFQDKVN
Source text: Recombinant protein B55 (regulatory sub-unit of PP2A) expressed in bacteria.
as §1, §2
as §3, with “membranes. […]” for “membranes.”

[3] = molecular target: T3, structural sub-unit A of PP2A (Homo sapiens, UniProt P30153); assay: peptide spot membrane binding, detected by western blot, with PP2A sub-unit A; conditions: E4orf4 dodecapeptide membrane; 4 μg/ml purified protein overnight; antibody against protein A; FIG. 1
T3 construct: made in house; host or cells: bacteria
T3 sequence (P30153 whole entry): as the sequence (P54612 whole entry, one chain of several) above, with T324S counted along it
Source text: Recombinant protein A (structural sub-unit of PP2A) expressed in bacteria.
as §1, §2
as §3, with “membranes. […]” for “membranes.”

Substance | binding of Bcl-2 peptide sequence to PP2A1 holoenzyme [1] | binding of E4orf4 peptide sequence to PP2A1 protein [1] | binding of E4orf4 peptide sequence to sub-unit A [3] | also measured
PLQTPAAPGAAAGPAL [site 1-ABC, Bcl-2 residues 71-86, spot peptides 35 to 37] | binding site of Bcl-2 with the PP2A1 holoenzyme |  |  | 
ARTSPLQTPAAPGAAAGPAL [site 1-B, Bcl-2 residues 67-86, spot peptides 33 to 37] |  |  |  | binding of Bcl-2 peptide sequence to sub-unit B ([2]; Bcl-2 dodecapeptide membrane, FIG. 2): binding site of Bcl-2 with the regulatory sub-unit B
RELGSMLE SPMEFLFDTI DDVTAS (RELGSMLESPMEFLFDTIDDVTAS) [site B1, E4orf4 (canine adenovirus type 2) residues 23-46, spot peptides 12 to 18] |  | binding sites of E4orf4 with the PP2A1 protein |  | binding of E4orf4 peptide sequence to sub-unit B ([2]; E4orf4 dodecapeptide membrane, FIG. 1): binding site of E4orf4 with the structural sub-unit B
AFRGRE VTVSLLEVFSFC (AFRGREVTVSLLEVFSFC) [site A3, E4orf4 residues 106-124, spot peptides 52 to 55] |  | binding sites of E4orf4 with the PP2A1 protein | binding sites of E4orf4 with the sub-unit A | 
LGSMLE SPMEFLFDTI DDVTAS (LGSMLESPMEFLFDTIDDVTAS) [site A 1, E4orf4 residues 25-46, spot peptides 13 to 18] |  |  | binding sites of E4orf4 with the sub-unit A | 
LFDFSWLSLKTLLSLALVGA [site 2-ABC, Bcl-2 residues 209-228, spot peptides 105-109] | binding site of Bcl-2 with the PP2A1 holoenzyme |  |  | 
